{"source": "paper PMC2921341", "about": "“Interaction of Serum- and Glucocorticoid Regulated Kinase 1 (SGK1) with the WW-Domains of Nedd4-2 Is Required for Epithelial Sodium Channel Regulation” (PLoS ONE, 2010)", "key": {"ENaC [1]": {"system": "ENaC", "experiment": "Amiloride-sensitive short circuit current in FRT epithelia with ENaC: Nedd4-2 dose response with SGK, SGKY298A or GFP", "format": "cell-based", "details": "for effect on Nedd4-2 dose-response relationship for ENaC inhibition (in words): FRT epithelia with α-, β-, γENaC, 0.6 µg SGK construct, Nedd4-2 0–0.2 µg, amiloride 10 µM, n = 18", "method": "To test the hypothesis that the interaction of the Nedd4-2 WW-domains with the SGK PY motif is required for SGK to influence Nedd4-2 function, we co-expressed α-, β- and γENaC in FRT epithelia with either wild type SGK or SGKY298A along with increasing amounts of Nedd4-2, and measured the amiloride-sensitive short circuit current.\nFigure 4 The SGK PY motif is necessary for SGK to inhibit Nedd4-2. Amiloride-sensitive short-circuit sodium current (relative to 0 µg of Nedd4-2) in FRT cells 48 hr after transfection with α-, β- and γENaC and SGK (closed circles) or SGKY298A (open circles) or GFP (closed squares), in the presence of increasing amounts of Nedd4-2, n = 18. Nedd4-2 is expressed as a fraction of the amount of ENaC cDNA. Expression of SGK and SGKY298A was reported in Figure 1B of Snyder et al..\nFischer rat thyroid (FRT) cells were grown on permeable filter supports (Snapwell™, Corning USA or Millicell PCF, both with […] pore size, 12 mm diameter) in F-12 Coon's media with 5% fetal calf serum (Sigma), 100 U/ml penicillin, and 100 µg/ml streptomycin at 37°C. One day after seeding, cells were cotransfected with α-, β- and γENaC (0.07 µg each), 0.6 µg wildtype or mutant SGK, and 0–0.2 µg Nedd4-2 (Fig. 4 only). Total DNA was held constant (1 µg/millicell) using cloning vector DNA. The plasmids were mixed with Lipofectamine 2000 (Invitrogen) or TFX 50 (Promega, Madison, WI; 7.9 µg/millicell) in serum free F12 Coon's media for 15 minutes and transferred to the apical surface of the monolayer. One-six hours later, the apical media was replaced with F-12 Coon's media containing 5% fetal calf serum and amiloride (10 µM). Short-circuit current was measured […] after transfection in modified Ussing chambers connected to a voltage clamp (South Campus Electronics, Dunedin, New Zealand or Warner Instruments). The apical and basolateral surfaces were bathed in (in mM) 135 NaCl, 1.2 CaCl2, 1.2 MgCl2, 2.4 K2HPO4, 0.6 KH2PO4, 10 HEPES, pH 7.4, at 37°C and bubbled with O2. Amiloride-sensitive short-circuit current (Isc-amiloride) was determined as the difference in current with and without amiloride (10 µM) in the apical bathing solution. Data are presented as relative Isc-amiloride (Isc-amiloride relative) that was obtained by normalizing the Isc-amiloride to that of control cells transfected with αβγENaC in the same experiment. Transepithelial resistance (Rt) was monitored by applying repetitive voltage potential pulses (5 mV for 1 sec at 120 sec intervals) across the epithelium."}, "Nedd4-2 [2]": {"system": "Nedd4-2", "details": "previous work; ref [19]; cited from earlier work", "excerpt": "There has been debate in the literature over detection of an interaction between SGK and Nedd4-2 in vitro, and the interaction is currently not understood at the molecular level. SGK contains a PY motif (PPFY), which might mediate interaction with the WW-domains of Nedd4/Nedd4-2. […] Two previous in vitro binding studies have asked whether the WW-domains of Nedd4-2 interact with an SGK peptide containing the PY motif. […] To test the hypothesis that the interaction of the Nedd4-2 WW-domains with the SGK PY motif is required for SGK to influence Nedd4-2 function, we co-expressed α-, β- and γENaC in FRT epithelia with either wild type SGK or SGKY298A along with increasing amounts of Nedd4-2, and measured the amiloride-sensitive short circuit current. Consistent with our previous work, we fo ..."}, "Nedd4-2 [3]": {"system": "Nedd4-2", "details": "SGK lacking its PY motif; ref [20]; cited from earlier work"}, "ENaC [4]": {"system": "ENaC", "experiment": "Amiloride-sensitive short circuit current in FRT epithelia transfected with α-, β- and γENaC", "format": "cell-based", "details": "serum-containing and serum-free media gave similar results, amiloride 10 µM, n = 4", "method": "(§1) SGK is activated by phosphorylation, via a phosphatidylinositide 3-kinase (PI3K)-dependent pathway, and SGK is then able to phosphorylate substrates such as Nedd4-2. Although we were able to detect interaction of Nedd4-2 WW-domains with wildtype SGK (Fig. 1B, C), we hypothesized that an activated form of SGK might have a higher affinity for Nedd4-2. Therefore GST interaction experiments were performed comparing the binding of wildtype SGK and activated SGK (SGKS422D) to isolated Nedd4-2 WW-domains. SGKS422D appeared to run more slowly compared to SGK, consistent with it representing a phosphorylated form of SGK [8]. […] To ask if SGKS422D has an altered effect on Na^+ transport, we measured the amiloride-sensitive short circuit current in Fischer rat thyroid (FRT) epithelia transfected with α-, β-, and γENaC and either wildtype or activated SGK (Fig. 3C). […] Instead, increased binding of SGKS422D to Nedd4-2 may be a factor in the improved ability of SGKS422D to increase amiloride-sensitive current.\n(§2) Figure 3 SGKS422D binding to Nedd4-2 and stimulation of ENaC is enhanced compared to wildtype SGK. (A) SGK-FLAG or SGKS422D-FLAG were expressed in COS7 cells. […] After washing the beads, the bound proteins were eluted and analyzed by SDS-PAGE and western blotting with anti-FLAG. […] (B) The resulting bands were quantified by densitometry and normalized to total expression of either SGK or SGKS422D. […]"}, "Nedd4": {"system": "Nedd4", "details": "in vitro studies; ref [19]; cited from earlier work", "excerpt": "There has been debate in the literature over detection of an interaction between SGK and Nedd4-2 in vitro, and the interaction is currently not understood at the molecular level. SGK contains a PY motif (PPFY), which might mediate interaction with the WW-domains of Nedd4/Nedd4-2. […] Two previous in vitro binding studies have asked whether the WW-domains of Nedd4-2 interact with an SGK peptide containing the PY motif. One study used surface plasmon resonance and ..."}, "Nedd4-2 WW-domains": {"system": "Nedd4-2 WW-domains", "experiment": "GST interaction experiments, wildtype versus activated SGK on Nedd4-2 WW-domains", "format": "binding, human", "details": "GST pulldown with 50 µg WW2, WW3 or WW2–3 fusion, COS7 lysates, densitometry normalized to expression; n = 9 for WW2 and WW3, n = 6 for WW2–3", "method": "as §1, §2"}, "GST": {"system": "GST", "experiment": "GST interaction experiments, GST alone (control)", "format": "binding", "details": "GST pulldown control, COS7 lysates, Fig. 3A", "method": "as §1, §2"}}}
{"molecule": "SGKY298A: SGK that contains a mutated PY motif (protein, left off: FLAG, end not stated, state not stated, SGK that contains a mutated PY motif) MTVKTEAAKGTLTYSRMRGMVAILIAFMKQRRMGLNDFIQKIANNSYACKHPEVQSILKISQPQEPELMNANPSPPPSPSQQINLGPSSNPHAKPSDFHFLKVIGKGSFGKVLLARHKAEEVFYAVKVLQKKAILKKKEEKHIMSERNVLLKNVKHPFLVGLHFSFQTADKLYFVLDYINGGELFYHLQRERCFLEPRARFYAAEIASALGYLHSLNIVYRDLKPENILLDSQGHIVLTDFGLCKENIEHNSTTSTFCGTPEYLAPEVLHKQPYDRTVDWWCLGAVLYEMLYGLPPFASRNTAEMYDNILNKPLQLKPNITNSARHLLEGLLQKDRTKRLGAKDDFMEIKSHVFFSLINWDDLINKKITPPFNPNVSGPNDLRHFDPEFTEEPVPNSIGKSPDSVLVTASVKEAAEAFLGFSYAPPTDSFL", "values": [{"measurement": "stimulation of ENaC in the presence of Nedd4-2 (in words)", "setting": "ENaC [1]; FRT epithelia with ENaC and Nedd4-2", "value": "failed to stimulate ENaC activity in the presence of Nedd4-2"}, {"measurement": "effect on Nedd4-2 dose-response relationship for ENaC inhibition (in words)", "setting": "ENaC [1]", "value": "had no effect on the Nedd4-2 dose-response relationship"}, {"measurement": "binding to full length Nedd4-2 (in words)", "setting": "Nedd4-2 [2]", "value": "not able to bind full length Nedd4-2"}, {"measurement": "phosphorylation of Nedd4-2 (in words)", "setting": "Nedd4-2 [3]", "value": "less able to phosphorylate Nedd4-2"}]}
{"molecule": "SGK: Serum- and Glucocorticoid regulated Kinase isoform 1 (protein, UniProt O00141 1-431, looked up) Serine/threonine-protein …: MTVKTEAAKGTLTYSRMRGMVAILIAFMKQRRMGLNDFIQKIANNSYACKHPEVQSILKISQPQEPELMNANPSPPPSPSQQINLGPSSNPHAKPSDFHFLKVIGKGSFGKVLLARHKAEEVFYAVKVLQKKAILKKKEEKHIMSERNVLLKNVKHPFLVGLHFSFQTADKLYFVLDYINGGELFYHLQRERCFLEPRARFYAAEIASALGYLHSLNIVYRDLKPENILLDSQGHIVLTDFGLCKENIEHNSTTSTFCGTPEYLAPEVLHKQPYDRTVDWWCLGAVLYEMLYGLPPFYSRNTAEMYDNILNKPLQLKPNITNSARHLLEGLLQKDRTKRLGAKDDFMEIKSHVFFSLINWDDLINKKITPPFNPNVSGPNDLRHFDPEFTEEPVPNSIGKSPDSVLVTASVKEAAEAFLGFSYAPPTDSFL", "values": [{"measurement": "effect on amiloride-sensitive short circuit current, Isc-amiloride (in words)", "setting": "ENaC [4]", "value": "stimulated Isc-amiloride significantly"}, {"measurement": "effect on Nedd4-2 dose-response relationship for ENaC inhibition (in words)", "setting": "ENaC [1]", "value": "reduced inhibition, shifting the dose-response relationship to the right"}, {"measurement": "binding to full length Nedd4-2 (in words)", "setting": "Nedd4-2 [2]", "value": "Nedd4 and Nedd4-2 interact with wildtype SGK"}, {"measurement": "interaction with Nedd4 (in words)", "setting": "Nedd4", "value": "Nedd4 and Nedd4-2 interact with wildtype SGK"}]}
{"molecule": "SGKS422D: activated SGK; mutation of one of two phosphorylation sites (protein, left off: FLAG, C-terminal, kept, mutation of one of two phosphorylation sites) MTVKTEAAKGTLTYSRMRGMVAILIAFMKQRRMGLNDFIQKIANNSYACKHPEVQSILKISQPQEPELMNANPSPPPSPSQQINLGPSSNPHAKPSDFHFLKVIGKGSFGKVLLARHKAEEVFYAVKVLQKKAILKKKEEKHIMSERNVLLKNVKHPFLVGLHFSFQTADKLYFVLDYINGGELFYHLQRERCFLEPRARFYAAEIASALGYLHSLNIVYRDLKPENILLDSQGHIVLTDFGLCKENIEHNSTTSTFCGTPEYLAPEVLHKQPYDRTVDWWCLGAVLYEMLYGLPPFYSRNTAEMYDNILNKPLQLKPNITNSARHLLEGLLQKDRTKRLGAKDDFMEIKSHVFFSLINWDDLINKKITPPFNPNVSGPNDLRHFDPEFTEEPVPNSIGKSPDSVLVTASVKEAAEAFLGFDYAPPTDSFL", "values": [{"measurement": "binding to Nedd4-2 WW-domains compared with wildtype SGK (in words)", "setting": "Nedd4-2 WW-domains", "value": "binds Nedd4-2 WW-domains more strongly than SGK"}, {"measurement": "binding to GST alone (in words)", "setting": "GST", "value": "did not bind to GST alone"}, {"measurement": "effect on amiloride-sensitive short circuit current, Isc-amiloride (in words)", "setting": "ENaC [4]", "value": "greater stimulatory effect on Isc-amiloride compared to SGK"}]}
